Where a chain is given by its changes, count along the chain named. Names and notes keep the numbering of the source.
Assays:
[1] = tested on: O1 LPS activation of NF-κB in RAW264.7-lux cells; assay: LPS neutralization assay (NF-κB luciferase, RAW264.7-lux), O1 LPS; type: cell-based, murine; conditions: human IgG1 format
Procedure: (§1) Activation of TLR4 receptors by bacterial LPS leads to downstream activation of the NF-κB transcriptional regulator. A decrease in induction of NF-κB-responsive luciferase activity was used to quantify LPS neutralization activity by LPS mAbs. A murine RAW264.7 macrophage cell line was engineered to carry a firefly luciferase reporter gene under the control of an NF-κB-responsive promoter (RAW264.7-lux). Serially diluted antibody stocks were mixed with LPS in a 1:1 ratio and incubated at 4° C. for 1 hr. Antibody/LPS mixtures were then diluted 1:10 into assay plates containing pre-seeded RAW264.7-lux cells (4e5 cells/well), which were then placed at 37° C. with 5% CO2 for 2.5 hours. Following incubations, Steady Glo solution (Promega) was added to each well and incubated for another 20 min protected from light. The relative light units (RLUs) were measured using a multi-mode microplate reader (Synergy 2, Biotek or envision multilabel plate reader, Perkin Elmer). The percentage of inhibition was determined by comparing RLU derived from assays with no antibodies to RLU derived from assays with anti-K. pneumoniae mAbs and assays performed with a negative control mAb. […] All mAbs were tested in human IgG1 format.

O2 LPS = assay: ELISA binding to O2 LPS; set-up: species or system Klebsiella pneumoniae; conditions: for binding to LPS-O2: secondary screening, ELISA; for binding to O2 LPS compared to parent antibody: sequence-optimized variants, FIG. 9
Procedure: The coated plates were incubated with cell culture supernatants from polyclonally stimulated lymphocytes (AMVBRA) or from monoclonal immortalized B cells (donor interrogations) containing fully human antibodies or with diluted plasma samples (PBMC donor selections) for 1 hour at room temperature. The plates were then washed with PBS containing 0.1% Tween-20 (PBS-T). Secondary antibody was added; either Alkaline Phosphatase-conjugated Goat Anti-Human IgG-AP (Southern Biotech, 2040-04, 1:1000 in PBS-B) or Peroxidase AffiniPure F(ab′)2 Fragment Goat Anti-Human IgG, Fc Fragment Specific (Jackson ImmunoResearch #309 036 098, 1:5000 in PBS-B) were used. Secondary antibodies were typically incubated for 1 h. Plates were washed three times with PBS-T, and P-NitroPhenyl Phosphate (pNPP, Sigma-Aldrich, cat #N2765-100TAB) or Sureblue (KPL, 53-00-03) substrates were added and incubated for 10 min or until the development of a colorimetric reaction. In the case of the HRP substrate Sureblue, the reaction was stopped by adding an equal volume of 0.2N HCl. The absorbance at 405 nm (pNPP) or 450 nm (Sureblue) was measured by a microplate reader (Biotek, Elx808).
The coated plates were incubated with serial dilutions of the monoclonal antibodies for 1 hour at room temperature. The plates were then washed with PBS containing 0.1% Tween-20 (PBS-T). Alkaline Phosphatase-conjugated Goat Anti-Human IgG (Southern Biotech, 2040-04, 1:1000 in PBS-B) was added. The secondary antibody reactions were incubated for 1 h. Plates were washed three times with PBS-T, and P-NitroPhenyl Phosphate (pNPP, Sigma-Aldrich, cat #N2765-100TAB) substrate was added and incubated for 30 min or until the development of a colorimetric reaction. The absorbance at 405 nm was measured by a microplate reader (Biotek, Elx808). The data was plotted with Graphpad Prism software. Representative mAbs from each class were tested for their binding to O1 LPS (FIG. 2A) and O2 LPS (FIG. 2B), and EC50 values were obtained (FIG. 2C). The majority of the anti-O2 LPS mAbs bound to both O1 and O2 LPS by ELISA. […] None of these LPS mAbs bound to the 03, 04, 05, 07, or 012 LPS serotypes (see e.g., FIG. 1A).

[2] = tested on: O2 LPS activation of NF-κB in RAW264.7-lux cells; assay: LPS neutralization assay (NF-κB luciferase, RAW264.7-lux), O2 LPS; type: cell-based, murine; set-up: key to LPS Neut O2: +++: Strongly positive activity; +: Positive activity; +/−: Somewhat positive depending upon the test conditions; conditions: for LPS Neut O2: Table 7 summary; for neutralizing activity against O2 LPS (NF-κB activation): human IgG1 format; for neutralization of LPS-O2: secondary screening
Procedure: as §1

[3] = tested on: K. pneumoniae 8570ΔcpsBLux (O2); assay: Opsonophagocytic killing (OPK) assay, O2 capsule mutant; type: cell-based, Klebsiella pneumoniae; set-up: key to D Capsule OPK O2: +++: Strongly positive activity; +: Positive activity; +/−: Somewhat positive depending upon the test conditions; conditions: for D Capsule OPK O2: capsule mutant strain 8570ΔcpsB lux (O2); for OPK activity against O2 capsule mutant: secondary screening
Procedure: OPK activity of anti-O2 LPS mAbs was tested against O1 and O2 strains. Briefly, log phase cultures of luminescent K. pneumoniae strains 8570ΔcpsBLux (O2) and 43816ΔcpsBLux (O1) were diluted to ˜2×10^6 cells/ml. K. pneumoniae cells, 5e5/well dimethylformamide (DMF) differentiated HL-60 cells, cleared baby rabbit serum (1:10 Cedarlane), and a series dilution of antibodies (2 ng-2.5 μg/mL) were mixed in 96-well plates and incubated at 37° C. for two hours with shaking (250 rpm). The relative light units (RLUs) were then measured using a multi-mode microplate reader (Synergy 2, Biotek or envision multilabel plate reader, Perkin Elmer). The percentage of killing was determined by comparing RLU derived from assays with no antibodies to RLU derived from assays with anti-K. pneumoniae mAbs and assays performed with a negative control mAb. Positive killing was determined where the percentage of killing is above 40%.

B1: KPS3: Class III anti-O2 antigen human mAb; VH SEQ ID NO: 35, VL SEQ ID NO: 36 (antibody, V domains shown)
VH: QGQLVDSGGGVVQRGGSQRLSCAASGFSFRDYGMHWVRQAPGKGLEWVAFISYDGRDQYYADSVKGRFIISRDNSKNTLSLQMNSLRPEDTAVYYCGPFYNPSLYYPPWGHGLPVIVSS
VL: EVVLTQSPATLSLSPGERATLSCRASQSISSQLAWYQQKPGQAPRLLIHDASNRDTGVPDRFSGSGSGTDFTLTISSLEPEDFAMYYCLQRNNWPPWTFGQGTKVEIK
modifications: Description of Artificial Sequence: SyntheticKPS3 VH polypeptide; Description of Artificial Sequence: SyntheticKPS3 VL polypeptide
[1]
  neutralizing activity against O1 LPS (NF-κB activation): no activity
O2 LPS
  binding to LPS-O2: bound specifically
[2]
  LPS Neut O2: +/−
  neutralizing activity against O2 LPS (NF-κB activation): moderate neutralizing activity
  neutralization of LPS-O2: neutralized
[3]
  D Capsule OPK O2: +++
  OPK activity against O2 capsule mutant: strong OPK activity

B2: antibody C: sequence-optimized KPN179, all frameworks germlined; VH SEQ ID NO: 188, VL SEQ ID NO: 191 (antibody, V domains shown)
VH: EVQLVESGGGLVKPGGSLRLSCAASGFTFSNAWMNWVRQAPGKGLEWVGRIKRKADGETTDYAAPVKGRFTISRDDSKNTLYLQMNSLKTEDTAVYYCTTRIVTTNDYWGQGTLVTVSS
VL: QSALTQPRSVSGSPGQSVTISCTGTSSDVGYYDYVSWYQQHPGKAPKLMIYDVNKRPSGVPDRFSGSKSGNTASLTISGLQAEDEADYYCASYAGGDTFVFGTGTKVTVL
modifications: Description of Artificial Sequence: SyntheticKPN179-FR-GL N35S-VH/KPN179-FR-GL-C105A-VL VHpolypeptide; Description of Artificial Sequence: SyntheticKPN179-FR-GL N35S-VH/KPN179-FR-GL-C105A-VL VL polypeptide
O2 LPS
  binding to O2 LPS compared to parent antibody: significantly reduced binding

B3: antibody B: sequence-optimized KPN42; VH SEQ ID NO: 17, VL SEQ ID NO: 18 (antibody, V domains shown)
VH: EVQLVESGGGLVKPGGSLRLSCAASGFTFNDAWMNWVRQAPGKGLEWVGRIKKKHEGVTTDYPASVRGRFTISRDDSKNTVYLQMGRLRIEDTAIYYCTTRIVTTNDYWGQGTLVTVSS
VL: B2 VL with Y31A, T98I
modifications: Description of Artificial Sequence: SyntheticKPN42-v2016 VH polypeptide; Description of Artificial Sequence: SyntheticKPN42-v2016 VL polypeptide
O2 LPS
  binding to O2 LPS compared to parent antibody: comparable binding

B4: antibody A: sequence-optimized KPN42, all frameworks germlined; VH SEQ ID NO: 26, VL SEQ ID NO: 27 (antibody, V domains shown)
VH: B2 VH with S30N, N31D, R53K, A55H, D56E, E58V
VL: B2 VL with Y31A, T98I
modifications: Description of Artificial Sequence: SyntheticKPN42-FR-GL-VH/KPN42-FR-GL-C105A-VL VH polypeptide; Description of Artificial Sequence: SyntheticKPN42-FR-GL-VH/KPN42-FR-GL-C105A-VL VL polypeptide
O2 LPS
  binding to O2 LPS compared to parent antibody: comparable binding

B5: antibody D: sequence-optimized KPN179; VH SEQ ID NO: 187, VL SEQ ID NO: 190 (antibody, V domains shown)
VH: B2 VH with A63P, P65S, I72V, L81I, V95I
VL: B2 VL
modifications: Description of Artificial Sequence: SyntheticKPN179-FR-1-2-4-GL N35S-VH/KPN179-FR-GL-C105A-VL VHpolypeptide; Description of Artificial Sequence: SyntheticKPN179-FR-1-2-4-GL N35S-VH/KPN179-FR-GL-C105A-VL VLpolypeptide
O2 LPS
  binding to O2 LPS compared to parent antibody: comparable binding

B6: KPS18: Class III anti-O2 antigen human mAb; VH SEQ ID NO: 98, VL SEQ ID NO: 99 (antibody, V domains shown)
VH: EVRLVESGGGLVKPGGSLRLSCAASGFTFKNAWMSWIRQAPGKGLEWVGRVKNEVDGGTIDYGVPVRGRFTISRDDSQGTLSLEMNSLREDDTGIYYCRAFWSGFPAGYWGQGTLVSVSS
VL: QSVLTQPPSLSAAPGQTVTIACSGSRSNIGSDSVSWFQQFPGTAPRVLMYDNNKRPSGISDRFSGSKSGTSVTLDITGLQTGDEADYYCATWDSSLSAYVFGSGTKVTVL
modifications: Description of Artificial Sequence: SyntheticKPS18 VH polypeptide; Description of Artificial Sequence: SyntheticKPS18 VL polypeptide
[1]
  neutralizing activity against O1 LPS (NF-κB activation): no activity
O2 LPS
  binding to LPS-O2: bound specifically
[2]
  LPS Neut O2: +/−
  neutralizing activity against O2 LPS (NF-κB activation): moderate neutralizing activity
  neutralization of LPS-O2: neutralized
[3]
  D Capsule OPK O2: +++
  OPK activity against O2 capsule mutant: strong OPK activity

B7: 6F6: Class I mouse hybridoma anti-O2 mAb (Ms IgM); VH SEQ ID NO: 80, VL SEQ ID NO: 81 (antibody, V domains shown)
VH: QVHLQQSGSELRSPGSSVKLSCKDFDSDVFPIAYMGWIRQQPGHGFDWIGDILPNIGRTIYGEKFEDKATLDADTVSNTAYLELSSLTSEDSAIYYCARRGTSGAMDYWGQGTSVTVSS
VL: DVVMTQTPLFLPVSLGDQASISCRSSQGLVHSTGNTFLHWYLQKPGQSPKLLIYKVSNRFSGVPDRFSGSGSGTDFTLKISRVEAEDLGIYFCSQSTHIPYTFGGGTKLEIK
modifications: Description of Artificial Sequence: Synthetic6F6 VH polypeptide; Description of Artificial Sequence: Synthetic6F6 VL polypeptide
[3]
  D Capsule OPK O2: +

From patent US12312397B2, “Anti-O2 antibodies and uses thereof” (priority 2016, dated 2025)
